Source: US20160109449A1 (JULIUS MAXIMILIANS UNIVERSITAET WUERZBURG, published 2016)

Legend:
[1] = target: IsaA oligopeptide SEQ ID NO: 10 (Staphylococcus aureus); test: peptide array on glass slide, fluorescent secondary antibody
[2] = target: IsaA oligopeptide SEQ ID NO: 11 (Staphylococcus aureus); test: as above
[3] = target: IsaA oligopeptide SEQ ID NO: 12 (Staphylococcus aureus); test: as above
[4] = target: IsaA oligopeptide SEQ ID NO: 15 (Staphylococcus aureus); test: as above
[5] = target: IsaA oligopeptide SEQ ID NO: 18 (Staphylococcus aureus); test: as above
[6] = target: IsaA oligopeptide SEQ ID NO: 19 (Staphylococcus aureus); test: as above
[7] = target: IsaA oligopeptide SEQ ID NO: 20 (Staphylococcus aureus); test: as above
[8] = target: IsaA oligopeptide SEQ ID NO: 21 (Staphylococcus aureus); test: as above
[9] = target: IsaA oligopeptide SEQ ID NO: 23 (Staphylococcus aureus); test: as above
[10] = target: IsaA oligopeptide SEQ ID NO: 24 (Staphylococcus aureus); test: as above
[11] = target: IsaA oligopeptide SEQ ID NO: 25 (Staphylococcus aureus); test: as above
[12] = target: IsaA oligopeptide SEQ ID NO: 26 (Staphylococcus aureus); test: as above
[13] = target: IsaA oligopeptide SEQ ID NO: 27 (Staphylococcus aureus); test: as above
[14] = target: IsaA oligopeptide SEQ ID NO: 32 (Staphylococcus aureus); test: as above
[15] = target: IsaA oligopeptide SEQ ID NO: 33 (Staphylococcus aureus); test: as above
[16] = target: IsaA oligopeptide SEQ ID NO: 34 (Staphylococcus aureus); test: as above
[17] = target: IsaA oligopeptide SEQ ID NO: 35 (Staphylococcus aureus); test: as above
[18] = target: IsaA oligopeptide SEQ ID NO: 37 (Staphylococcus aureus); test: as above
[19] = target: IsaA oligopeptide SEQ ID NO: 38 (Staphylococcus aureus); test: as above
[20] = target: IsaA oligopeptide SEQ ID NO: 41 (Staphylococcus aureus); test: as above
[21] = target: IsaA oligopeptide SEQ ID NO: 42 (Staphylococcus aureus); test: as above
[22] = target: IsaA oligopeptide SEQ ID NO: 43 (Staphylococcus aureus); test: as above
[23] = target: IsaA oligopeptide SEQ ID NO: 45 (Staphylococcus aureus); test: as above
[24] = target: IsaA oligopeptide SEQ ID NO: 46 (Staphylococcus aureus); test: as above
[25] = target: IsaA oligopeptide SEQ ID NO: 47 (Staphylococcus aureus); test: as above
[26] = target: IsaA oligopeptide SEQ ID NO: 48 (Staphylococcus aureus); test: as above
[27] = target: IsaA oligopeptide SEQ ID NO: 49 (Staphylococcus aureus); test: as above
[28] = target: IsaA oligopeptide SEQ ID NO: 50 (Staphylococcus aureus); test: as above
[29] = target: IsaA oligopeptide SEQ ID NO: 51 (Staphylococcus aureus); test: as above
[30] = target: IsaA oligopeptide SEQ ID NO: 52 (Staphylococcus aureus); test: as above
[31] = target: IsaA oligopeptide SEQ ID NO: 54 (Staphylococcus aureus); test: as above
[32] = target: IsaA oligopeptide SEQ ID NO: 55 (Staphylococcus aureus); test: as above
[33] = target: IsaA oligopeptide SEQ ID NO: 56 (Staphylococcus aureus); test: as above
[34] = target: IsaA oligopeptide SEQ ID NO: 57 (Staphylococcus aureus); test: as above
[35] = target: IsaA oligopeptide SEQ ID NO: 61 (Staphylococcus aureus); test: as above
[36] = target: IsaA oligopeptide SEQ ID NO: 62 (Staphylococcus aureus); test: as above
[37] = target: IsaA oligopeptide SEQ ID NO: 63 (Staphylococcus aureus); test: as above
[38] = target: IsaA oligopeptide SEQ ID NO: 9 (Staphylococcus aureus); test: as above
[39] = target: T1, recombinant IsaA protein of Staphylococcus aureus (29 kDa immunodominant antigen IsaA) (Staphylococcus aureus, UniProt Q2FV52 30-233, limits assumed); test: SPR (BIACORE 2000), antibody captured on anti-mouse Fc surface, IsaA as analyte, 1:1 Langmuir fit
T1 construct: Coated as rIsaA in the ELISA; In the first SPR experiment it was N-biotinylated with sulfo-NHS-LC-biotin (mostly at a single site) and immobilised on streptavidin; In the second SPR experiment it was the analyte in solution; also called rIsaA; 29 kDa IsaA antigen
T1 sequence (looked up): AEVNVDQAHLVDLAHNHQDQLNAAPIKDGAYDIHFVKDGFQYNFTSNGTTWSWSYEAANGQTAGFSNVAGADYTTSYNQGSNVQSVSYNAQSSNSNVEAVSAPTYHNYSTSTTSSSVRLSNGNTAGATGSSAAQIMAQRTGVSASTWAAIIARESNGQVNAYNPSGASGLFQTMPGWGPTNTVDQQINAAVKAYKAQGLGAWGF
Protocol: A blank anti mouse Fc surface was used as control surface for monitoring unspecific binding and performing reference subtraction. Interaction analyses were performed using HBS-EP buffer (10 mM HEPES pH 7.4, 150 mM NaCl, 3 mM EDTA, 0.005% Tween 20). Sensorgrams were recorded at a flow rate of 30 μl/min at 25° C. Association and dissociation times were set to 3 and 15 min, respectively.
The anti-Fc capturing surfaces were regenerated after each cycle using short pulses of 10 mM glycine pH 1.7.
Affinities and rate constants for association (kₒₙ) and for dissociation (koff) were calculated using the BIAevaluation software 4.0.1 fitting the obtained sensorgrams to a 1:1 Langmuir binding model.

Molecule: control antibodies (peptide array) (antibody)
- Binding (fluorescence intensity) [1]: 160
- Binding (fluorescence intensity) [2]: -11
- Binding (fluorescence intensity) [3]: -22
- Binding (fluorescence intensity) [4]: 107
- Binding (fluorescence intensity) [5]: -119
- Binding (fluorescence intensity) [6]: 83.7
- Binding (fluorescence intensity) [7]: 106
- Binding (fluorescence intensity) [8]: 182
- Binding (fluorescence intensity) [9]: 367
- Binding (fluorescence intensity) [10]: 79.3
- Binding (fluorescence intensity) [11]: -61.7
- Binding (fluorescence intensity) [12]: 261
- Binding (fluorescence intensity) [13]: 81
- Binding (fluorescence intensity) [14]: 98.3
- Binding (fluorescence intensity) [15]: -0.7
- Binding (fluorescence intensity) [16]: 98.7
- Binding (fluorescence intensity) [17]: 110
- Binding (fluorescence intensity) [18]: -27.3
- Binding (fluorescence intensity) [19]: 97.7
- Binding (fluorescence intensity) [20]: 29.3
- Binding (fluorescence intensity) [21]: 35.7
- Binding (fluorescence intensity) [22]: 44.3
- Binding (fluorescence intensity) [23]: -4.3
- Binding (fluorescence intensity) [24]: -24.3
- Binding (fluorescence intensity) [25]: 14.7
- Binding (fluorescence intensity) [26]: 398
- Binding (fluorescence intensity) [27]: 40
- Binding (fluorescence intensity) [28]: -49.7
- Binding (fluorescence intensity) [29]: 58
- Binding (fluorescence intensity) [30]: -60
- Binding (fluorescence intensity) [31]: -51.7
- Binding (fluorescence intensity) [32]: 36
- Binding (fluorescence intensity) [33]: -17.3
- Binding (fluorescence intensity) [34]: 313
- Binding (fluorescence intensity) [35]: 30.3
- Binding (fluorescence intensity) [36]: 6.3
- Binding (fluorescence intensity) [37]: 57.7
- Binding (fluorescence intensity) [38]: 70

B1: monoclonal antibody MAB-UK-66 secreted by hybridoma cell line DSM ACC2987 (antibody, V domains shown)
VH: DVKLVESGGGLVKLGGSLKLSCSASGFTFSNYYMSWVRQTPEKRLELVADINGNGGSTYYPDTVKGRFTISRDNAKNTLYLQMSSLKSEDTALYYCVRRGGYYALDYWGQGTTVTVSS
VL: DVVMTQTPLSLPVSLGDQASISCRSSQSLVHINGNTYLHWYLQKPGQSPKLLIYRVSNRFSGVPDRFSGSGSGTDFTLKISRVEAEDLGVYFCSQSTHVPWTFGGGTKLELKR
notes: Monoclonal mouse antibody from a hybridoma; Detected with anti-mouse IgG; also called antibodies secreted by cell line DSM ACC2987; anti-IsaA MAB
- Kd [39]: 1.7 nM
- koff [39]: 0.00029 s⁻¹
- kon [39]: 180000 M⁻¹ s⁻¹
